The assay addresses T1, recombinant full-length PD-L1 protein (Phe19-Thr290) (UniProt Q9NZQ7 19-290).
T1 construct: Programmed Death-Ligand 1 (PD-L1), residues Phe19-Thr290; also called flPD-L1; source: bought: Amsbio (TP710226)
Description: BLI; FortéBio Octet K2; p17 or p24 immobilised on aminopropylsilane biosensors, saturated with BSA; association and dissociation 8 min each; PBS with 0.01% BSA and 0.002% Tween-20, 1,000 rpm; for kinetics flPD-L1 from 0 to 450 nM, BSA as reference, 1:1 model. Conditions: both partners purified. On the technique in general: BLI is a label-free optical method that tracks binding on a fibre tip over time.

T1 sequence (Q9NZQ7 19-290): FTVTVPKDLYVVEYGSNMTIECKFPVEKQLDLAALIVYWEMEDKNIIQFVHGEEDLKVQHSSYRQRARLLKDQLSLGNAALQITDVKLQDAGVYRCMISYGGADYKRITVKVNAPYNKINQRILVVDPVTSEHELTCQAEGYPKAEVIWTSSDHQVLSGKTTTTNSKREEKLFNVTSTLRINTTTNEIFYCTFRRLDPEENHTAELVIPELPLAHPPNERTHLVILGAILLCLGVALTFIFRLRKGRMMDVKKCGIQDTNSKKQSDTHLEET

B1: p17 HIV matrix protein (natural protein)
chain: GARASVLSGGELDRWEKIRLRPGGKKKYKLKHIVWASRELERFAVNPGLLETSEGCRQILGQLQPSLQTGSEELRSLYNTVATLYCVHQRIEIKDTKEALDKIEEEQNKSKKKAQQAAADTGHSNQVSQNY
One may read the Kd as a measure of binding affinity in units of concentration. On to B1, for which the Kd came out at 0.3 nM.

Values taken from paper PMC9286290, “Active PD-L1 incorporation within HIV virions functionally impairs T follicular helper cells” (PLoS Pathogens, 2022).
